Experiments:
[1] = target: PorN, subunit of the purified PorKN ring (Porphyromonas gingivalis (endogenous in P. gingivalis)); assay: cryo-EM structure; PorKN rings purified from P. gingivalis through the twin strep tag on PorK (Strep-Tactin, 0.5% Triton X-100); single and double rings; whole rings at 7.4 Å (single) and 5.6 Å (double) with 33-fold symmetry; focused refinement of a segment in C1 to 3.2 Å
[2] = target: PorK with a C-terminal twin strep tag (PorK-Strep), subunit of the purified PorKN ring (Porphyromonas gingivalis); assay: as above

Substance	stoichiometry N [1]	stoichiometry N [2]
PorN, subunit of the purified PorKN ring (natural protein)	33	–
PorK with a C-terminal twin strep tag (PorK-Strep), subunit of the purified PorKN ring (natural protein)	–	33

Source: paper PMC12421860
